Assay results taken from PMC10397247.

Experiments:
Assay in all cases: two-hybrid library CCmax;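 further: natural log of median RNA to DNA barcode read ratio; higher means stronger binding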
Settings in all cases: mean of both orientations
P6-AA-12HGe-H = target: T1, P6-AA-12HGe-H
T1 chain: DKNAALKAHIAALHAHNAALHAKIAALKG

P6-AA-12HGe-Q = target: T2, P6-AA-12HGe-Q
T2 chain: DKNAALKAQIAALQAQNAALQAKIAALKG

P6-AA-12HGe-W = target: T3, P6-AA-12HGe-W
T3 chain: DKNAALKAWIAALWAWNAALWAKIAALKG

P6-AA-1HAA-R = target: T4, P6-AA-1HAA-R
T4 chain: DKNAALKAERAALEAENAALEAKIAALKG

P6-AA-1HAA-T = target: T5, P6-AA-1HAA-T
T5 chain: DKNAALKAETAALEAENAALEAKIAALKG

P6-AA-1HGe-W = target: T6, P6-AA-1HGe-W
T6 chain: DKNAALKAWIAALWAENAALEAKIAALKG

P6-AA-12HAA-L = target: T7, P6-AA-12HAA-L
T7 chain: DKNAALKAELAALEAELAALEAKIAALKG

4H2219-AA = target: T8, 4H2219-AA
T8 chain: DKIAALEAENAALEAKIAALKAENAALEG

P5-AA-12HGe-S = target: T9, P5-AA-12HGe-S
T9 chain: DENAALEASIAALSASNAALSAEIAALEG

P5-AA-1HAA-H = target: T10, P5-AA-1HAA-H
T10 chain: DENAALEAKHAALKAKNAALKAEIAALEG

P5-AA-1HAA-L = target: T11, P5-AA-1HAA-L
T11 chain: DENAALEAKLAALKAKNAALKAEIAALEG

P5-AA-1HAA-S = target: T12, P5-AA-1HAA-S
T12 chain: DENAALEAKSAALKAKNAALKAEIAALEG

P5-AA-1HGe-D = target: T13, P5-AA-1HGe-D
T13 chain: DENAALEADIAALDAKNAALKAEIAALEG

P5-AA-1HGe-R = target: T14, P5-AA-1HGe-R
T14 chain: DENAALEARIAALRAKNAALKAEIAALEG

P5-AA-1HGe-S = target: T15, P5-AA-1HGe-S
T15 chain: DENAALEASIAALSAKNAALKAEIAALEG

P5-AA-1HGe-T = target: T16, P5-AA-1HGe-T
T16 chain: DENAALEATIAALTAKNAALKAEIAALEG

P5-AA-1HGe-W = target: T17, P5-AA-1HGe-W
T17 chain: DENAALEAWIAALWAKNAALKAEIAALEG

4H3330-AA = target: T18, 4H3330-AA
T18 chain: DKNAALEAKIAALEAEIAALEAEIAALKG

4H716-AA = target: T19, 4H716-AA
T19 chain: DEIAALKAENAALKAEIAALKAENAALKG

APC2237-AA = target: T20, APC2237-AA
T20 chain: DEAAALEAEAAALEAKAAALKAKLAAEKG

APC6108-AA = target: T21, APC6108-AA
T21 chain: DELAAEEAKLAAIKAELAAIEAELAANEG

APC7099-AA = target: T22, APC7099-AA
T22 chain: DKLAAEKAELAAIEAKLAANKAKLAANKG

APC8191-AA = target: T23, APC8191-AA
T23 chain: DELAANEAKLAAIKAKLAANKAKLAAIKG

APC9096-AA = target: T24, APC9096-AA
T24 chain: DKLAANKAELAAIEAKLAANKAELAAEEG

APC9319-AA = target: T25, APC9319-AA
T25 chain: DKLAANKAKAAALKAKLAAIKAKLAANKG

4H486-AA = target: T26, 4H486-AA
T26 chain: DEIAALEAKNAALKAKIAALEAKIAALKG

4H535-AA = target: T27, 4H535-AA
T27 chain: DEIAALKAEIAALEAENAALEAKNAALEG

4H146-AA = target: T28, 4H146-AA
T28 chain: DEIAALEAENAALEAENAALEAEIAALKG

4H189-AA = target: T29, 4H189-AA
T29 chain: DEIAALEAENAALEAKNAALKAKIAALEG

4H3121-AA = target: T30, 4H3121-AA
T30 chain: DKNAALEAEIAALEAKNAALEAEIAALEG

4H3446-AA = target: T31, 4H3446-AA
T31 chain: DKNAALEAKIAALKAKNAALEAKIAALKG

4H3709-AA = target: T32, 4H3709-AA
T32 chain: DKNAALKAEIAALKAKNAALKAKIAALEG

4H656-AA = target: T33, 4H656-AA
T33 chain: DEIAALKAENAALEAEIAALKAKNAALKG

4H1405-AA = target: T34, 4H1405-AA
T34 chain: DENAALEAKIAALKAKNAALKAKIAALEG

4H2608-AA = target: T35, 4H2608-AA
T35 chain: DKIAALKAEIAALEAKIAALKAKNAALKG

4H2646-AA = target: T36, 4H2646-AA
T36 chain: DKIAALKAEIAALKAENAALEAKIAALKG

4H278-AA = target: T37, 4H278-AA
T37 chain: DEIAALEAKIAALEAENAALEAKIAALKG

4H3134-AA = target: T38, 4H3134-AA
T38 chain: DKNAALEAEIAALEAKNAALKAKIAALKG

4H3664-AA = target: T39, 4H3664-AA
T39 chain: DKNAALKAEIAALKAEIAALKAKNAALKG

4H390-AA = target: T40, 4H390-AA
T40 chain: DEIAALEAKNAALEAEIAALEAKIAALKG

4H481-AA = target: T41, 4H481-AA
T41 chain: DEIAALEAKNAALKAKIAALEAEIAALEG

4H3974-AA = target: T42, 4H3974-AA
T42 chain: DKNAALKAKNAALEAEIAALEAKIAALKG

An interaction score (P6-AA-12HGe-H) of -1.23, an interaction score (P6-AA-12HGe-Q) of 1.69 and an interaction score (P6-AA-12HGe-W) of -1.79 were found for DENAALEAKIAALKAKNAALKAEIAALEG [4H1401-AA] in this work. It also gave an interaction score (P6-AA-1HAA-R) of 1.83, an interaction score (P6-AA-1HAA-T) of 1.96 and an interaction score (P6-AA-1HGe-W) of 1.14.

An interaction score (P6-AA-12HAA-L) of 2.03 was found for DENAALEAKIAALKAKIAALKAEIAALEG [4H1385-AA] in this work.

An interaction score (4H2219-AA) of -1.54 was found for DENAALKAEIAALKAENAALKAEIAALKG [4H1626-AA] in this work.

An interaction score (P5-AA-12HGe-S) of -0.516, an interaction score (P5-AA-1HAA-H) of 2.02 and an interaction score (P5-AA-1HAA-L) of 2.39 were found for DKNAALKAEIAALEAENAALEAKIAALKG [4H3606-AA] in this work. It also gave an interaction score (P5-AA-1HAA-S) of 1.63, an interaction score (P5-AA-1HGe-D) of 1.14 and an interaction score (P5-AA-1HGe-R) of 2.23. It also gave an interaction score (P5-AA-1HGe-S) of 2.03, an interaction score (P5-AA-1HGe-T) of 2.43 and an interaction score (P5-AA-1HGe-W) of 2.27.

An interaction score (4H3330-AA) of -1.3, an interaction score (4H716-AA) of -1.81 and an interaction score (APC2237-AA) of -1.46 were found for DENAALKAKIAALEAKNAALEAKIAALEG [4H1845-AA] in this work. The interaction score (APC6108-AA) was -2.14, the interaction score (APC7099-AA) was -1.48 and the interaction score (APC8191-AA) was -1.67. It also gave an interaction score (APC9096-AA) of -2.08 and an interaction score (APC9319-AA) of -1.55.

An interaction score (4H486-AA) of 1.54 and an interaction score (4H535-AA) of -1.14 were found for DENAALEAENAALKAKIAALKAEIAALEG [4H1257-AA] in this work.

An interaction score (4H146-AA) of -1.5, an interaction score (4H189-AA) of -1.4 and an interaction score (4H3121-AA) of -1.6 were found for DENAALEAEIAALEAKIAALEAKNAALKG [4H1064-AA] in this work. For the same binder, the interaction score (4H3446-AA) was -1.11, the interaction score (4H3709-AA) was -0.57 and the interaction score (4H656-AA) was -1.36.

An interaction score (4H1405-AA) of -0.893, an interaction score (4H2608-AA) of 1.38 and an interaction score (4H2646-AA) of -0.455 were found for DENAALEAKIAALKAEIAALEAKIAALKG [4H1350-AA] in this work. For the same binder, the interaction score (4H278-AA) was 0.443, the interaction score (4H3134-AA) was 0.186 and the interaction score (4H3664-AA) was 0.037. For the same binder, the interaction score (4H390-AA) was 0.523 and the interaction score (4H481-AA) was 0.532.

An interaction score (4H3974-AA) of -0.0812 was found for DEIAALEAENAALKAKNAALKAEIAALEG [4H249-AA] in this work.
